Source: article PMC7819272
Where no end group is shown, it is not given here. The star is where a group is joined. Biotin = O=C1N[C@H]2[C@H](CS[C@H]2CCCCC(=O)*)N1

Biological target: HLA-DR3 (HLA-DRβ1-Arg74 positive) on the surface of VAVY cells (human (endogenous in VAVY))
Test: flow cytometry on cells

Row | percent binding to DRβ-Arg74-positive cells at 10 μM peptide | percent binding to DRβ-Arg74-positive cells at 20 μM peptide | percent binding to DRβ-Arg74-positive cells at 50 μM peptide | Binder
1 | 14.7% | 19.4% | 72.9% | Biotin-FNGTKLDAVYLNKNKYLTVI [TSHR197–216 peptide, biotinylated]
2 | 5.1% | 21.7% | 51% | Biotin-GIFNTGLKMFPDLTKVYST [TSHR132–150 peptide, biotinylated]
